Patent US20200283741

T1: HbS1c-type αF8P
T1 chain: VHLTPVEK

T2: HbA1c-type αF8P (α-fructosyl-valyl-histidyl-leucyl-threonyl-prolyl-glutamyl-glutamyl-lysine)
T2 chain: VHLTPEEK

T3: HbC1c-type αF8P
T3 chain: VHLTPKEK


What was measured:
HbS1c-type αF8P = biological target: T1, HbS1c-type αF8P
[1] = biological target: T2, HbA1c-type αF8P …
HbC1c-type αF8P = biological target: T3, HbC1c-type αF8P

| Protein | relative activity (HbS1c/HbA1c), fold over En42FX before modification (HbS1c-type αF8P) | relative activity on substrate (activity on HbA1c-type αF8P = 100%) (HbS1c-type αF8P) [%] | relative activity on substrate (reference, designated as 100%) [1] [%] | relative activity on substrate (activity on HbA1c-type αF8P = 100%) (HbC1c-type αF8P) [%] | relative activity (HbS1c/HbA1c), fold over H40-3M before modification (HbS1c-type αF8P) |
| --- | --- | --- | --- | --- | --- |
| En42FX R108L (protein) MAPRANTKIIVVGGGGTMGSSTALHLLRAGYTPSNITVLDTYPIPSAQSAGYDLNKIFGISGANKHDLQLSLEAFDMWKNDPLFKPFFHNVGQMDVSSTEEGIKRLRLRYQSLLRAGIGLEKTNFLLESEDEILAKAPHFTREQIKGWKGLFCGDGGWLAAAKAINAIGQFLKEQGVKFGFGEAGTFKKPLFADADEKTCIGVETVDGTKYYADKVVLAAGAWSSTLVDLEEQCVSKAWVFAHIQLTPAEAAAYKNTPVIYDGDYGFFIEPDENGIIKVCDEFPGFTHFKMHQPYGSPVPKLISVPRSHAKHPTDTYPHASEVTIKKAINRFLPRFNDKELFNRAMCWCTDTADSNLLVCEHPRWKGFYLATGDSGHSFKLLPNIGKHVVELLEGRLESVFKDAWRWRPGSGDALKSRRAAPAKDLADMPGWRNEAKM | improved by about 1.4 to 3.7 times | 150 | 100 | 13 |  |
| En42FX R108E (protein) MAPRANTKIIVVGGGGTMGSSTALHLLRAGYTPSNITVLDTYPIPSAQSAGYDLNKIFGISGANKHDLQLSLEAFDMWKNDPLFKPFFHNVGQMDVSSTEEGIKRLRERYQSLLRAGIGLEKTNFLLESEDEILAKAPHFTREQIKGWKGLFCGDGGWLAAAKAINAIGQFLKEQGVKFGFGEAGTFKKPLFADADEKTCIGVETVDGTKYYADKVVLAAGAWSSTLVDLEEQCVSKAWVFAHIQLTPAEAAAYKNTPVIYDGDYGFFIEPDENGIIKVCDEFPGFTHFKMHQPYGSPVPKLISVPRSHAKHPTDTYPHASEVTIKKAINRFLPRFNDKELFNRAMCWCTDTADSNLLVCEHPRWKGFYLATGDSGHSFKLLPNIGKHVVELLEGRLESVFKDAWRWRPGSGDALKSRRAAPAKDLADMPGWRNEAKM |  | 100 | 100 | 31 |  |
| En42FX S112E (protein) MAPRANTKIIVVGGGGTMGSSTALHLLRAGYTPSNITVLDTYPIPSAQSAGYDLNKIFGISGANKHDLQLSLEAFDMWKNDPLFKPFFHNVGQMDVSSTEEGIKRLRRRYQELLRAGIGLEKTNFLLESEDEILAKAPHFTREQIKGWKGLFCGDGGWLAAAKAINAIGQFLKEQGVKFGFGEAGTFKKPLFADADEKTCIGVETVDGTKYYADKVVLAAGAWSSTLVDLEEQCVSKAWVFAHIQLTPAEAAAYKNTPVIYDGDYGFFIEPDENGIIKVCDEFPGFTHFKMHQPYGSPVPKLISVPRSHAKHPTDTYPHASEVTIKKAINRFLPRFNDKELFNRAMCWCTDTADSNLLVCEHPRWKGFYLATGDSGHSFKLLPNIGKHVVELLEGRLESVFKDAWRWRPGSGDALKSRRAAPAKDLADMPGWRNEAKM |  | 82 | 100 | 41 |  |
| En42FX S112D (protein) MAPRANTKIIVVGGGGTMGSSTALHLLRAGYTPSNITVLDTYPIPSAQSAGYDLNKIFGISGANKHDLQLSLEAFDMWKNDPLFKPFFHNVGQMDVSSTEEGIKRLRRRYQDLLRAGIGLEKTNFLLESEDEILAKAPHFTREQIKGWKGLFCGDGGWLAAAKAINAIGQFLKEQGVKFGFGEAGTFKKPLFADADEKTCIGVETVDGTKYYADKVVLAAGAWSSTLVDLEEQCVSKAWVFAHIQLTPAEAAAYKNTPVIYDGDYGFFIEPDENGIIKVCDEFPGFTHFKMHQPYGSPVPKLISVPRSHAKHPTDTYPHASEVTIKKAINRFLPRFNDKELFNRAMCWCTDTADSNLLVCEHPRWKGFYLATGDSGHSFKLLPNIGKHVVELLEGRLESVFKDAWRWRPGSGDALKSRRAAPAKDLADMPGWRNEAKM |  | 63 | 100 | 16 |  |
| En42FX R105S (protein) MAPRANTKIIVVGGGGTMGSSTALHLLRAGYTPSNITVLDTYPIPSAQSAGYDLNKIFGISGANKHDLQLSLEAFDMWKNDPLFKPFFHNVGQMDVSSTEEGIKSLRRRYQSLLRAGIGLEKTNFLLESEDEILAKAPHFTREQIKGWKGLFCGDGGWLAAAKAINAIGQFLKEQGVKFGFGEAGTFKKPLFADADEKTCIGVETVDGTKYYADKVVLAAGAWSSTLVDLEEQCVSKAWVFAHIQLTPAEAAAYKNTPVIYDGDYGFFIEPDENGIIKVCDEFPGFTHFKMHQPYGSPVPKLISVPRSHAKHPTDTYPHASEVTIKKAINRFLPRFNDKELFNRAMCWCTDTADSNLLVCEHPRWKGFYLATGDSGHSFKLLPNIGKHVVELLEGRLESVFKDAWRWRPGSGDALKSRRAAPAKDLADMPGWRNEAKM | improved by about 1.4 to 3.7 times | 56 | 100 | 13 |  |
| En42FX R108D (protein) MAPRANTKIIVVGGGGTMGSSTALHLLRAGYTPSNITVLDTYPIPSAQSAGYDLNKIFGISGANKHDLQLSLEAFDMWKNDPLFKPFFHNVGQMDVSSTEEGIKRLRDRYQSLLRAGIGLEKTNFLLESEDEILAKAPHFTREQIKGWKGLFCGDGGWLAAAKAINAIGQFLKEQGVKFGFGEAGTFKKPLFADADEKTCIGVETVDGTKYYADKVVLAAGAWSSTLVDLEEQCVSKAWVFAHIQLTPAEAAAYKNTPVIYDGDYGFFIEPDENGIIKVCDEFPGFTHFKMHQPYGSPVPKLISVPRSHAKHPTDTYPHASEVTIKKAINRFLPRFNDKELFNRAMCWCTDTADSNLLVCEHPRWKGFYLATGDSGHSFKLLPNIGKHVVELLEGRLESVFKDAWRWRPGSGDALKSRRAAPAKDLADMPGWRNEAKM |  | 95 | 100 | 23 |  |
| En42FX R108Q (protein) MAPRANTKIIVVGGGGTMGSSTALHLLRAGYTPSNITVLDTYPIPSAQSAGYDLNKIFGISGANKHDLQLSLEAFDMWKNDPLFKPFFHNVGQMDVSSTEEGIKRLRQRYQSLLRAGIGLEKTNFLLESEDEILAKAPHFTREQIKGWKGLFCGDGGWLAAAKAINAIGQFLKEQGVKFGFGEAGTFKKPLFADADEKTCIGVETVDGTKYYADKVVLAAGAWSSTLVDLEEQCVSKAWVFAHIQLTPAEAAAYKNTPVIYDGDYGFFIEPDENGIIKVCDEFPGFTHFKMHQPYGSPVPKLISVPRSHAKHPTDTYPHASEVTIKKAINRFLPRFNDKELFNRAMCWCTDTADSNLLVCEHPRWKGFYLATGDSGHSFKLLPNIGKHVVELLEGRLESVFKDAWRWRPGSGDALKSRRAAPAKDLADMPGWRNEAKM |  | 67 | 100 | 15 |  |
| CFP-T7-H40-3M (protein) MTSNRADTRVIVVGGGGTIGSSTALHLVRSGYAPANITVLDTFEIPSAQSAGHDLNKIMGIDHGNKVNLQMSLEARQMWKEDELFQPFFHNTGRMDCESTPKGIEKLKKYYQKLHDAGAGLEKTHAWLDNEDEILSKMPLLQRDQIQGWKAIWSQDGGWLAAAKAINAIGQFLKERGVKFGFGGAGSFKQPLFDDEGTTCIGVETADGTKYYADKVVLAAGAWSPTLVDLEDQCCSKAWVYAHIQLTPEEAAEYKGVPVVYNSEYGFFFEPDEFGVIKVCNEFPGFSRFKEHQPYGAPSPKRISVPRSHAKHPTDTYPDASEVSIKKAIATFLPRFQDKELFNRALCWCTDTADSTLLMCEHPKWKNFILATGDSGHSFKILPNVGKYVVELIEGRLPEEMAYQWRWRPGGDALKSRRAAPPKDLADMPGWKHDPKL |  | 39 | 100 | 11 |  |
| CFP-T7-H40-3M K102E (protein) MTSNRADTRVIVVGGGGTIGSSTALHLVRSGYAPANITVLDTFEIPSAQSAGHDLNKIMGIDHGNKVNLQMSLEARQMWKEDELFQPFFHNTGRMDCESTPEGIEKLKKYYQKLHDAGAGLEKTHAWLDNEDEILSKMPLLQRDQIQGWKAIWSQDGGWLAAAKAINAIGQFLKERGVKFGFGGAGSFKQPLFDDEGTTCIGVETADGTKYYADKVVLAAGAWSPTLVDLEDQCCSKAWVYAHIQLTPEEAAEYKGVPVVYNSEYGFFFEPDEFGVIKVCNEFPGFSRFKEHQPYGAPSPKRISVPRSHAKHPTDTYPDASEVSIKKAIATFLPRFQDKELFNRALCWCTDTADSTLLMCEHPKWKNFILATGDSGHSFKILPNVGKYVVELIEGRLPEEMAYQWRWRPGGDALKSRRAAPPKDLADMPGWKHDPKL |  | 68 | 100 |  | about 1.74 times greater than that prior to modification |
| CFP-T7-H40-3M K102A (protein) MTSNRADTRVIVVGGGGTIGSSTALHLVRSGYAPANITVLDTFEIPSAQSAGHDLNKIMGIDHGNKVNLQMSLEARQMWKEDELFQPFFHNTGRMDCESTPAGIEKLKKYYQKLHDAGAGLEKTHAWLDNEDEILSKMPLLQRDQIQGWKAIWSQDGGWLAAAKAINAIGQFLKERGVKFGFGGAGSFKQPLFDDEGTTCIGVETADGTKYYADKVVLAAGAWSPTLVDLEDQCCSKAWVYAHIQLTPEEAAEYKGVPVVYNSEYGFFFEPDEFGVIKVCNEFPGFSRFKEHQPYGAPSPKRISVPRSHAKHPTDTYPDASEVSIKKAIATFLPRFQDKELFNRALCWCTDTADSTLLMCEHPKWKNFILATGDSGHSFKILPNVGKYVVELIEGRLPEEMAYQWRWRPGGDALKSRRAAPPKDLADMPGWKHDPKL |  | 77 | 100 |  | about 1.97 times greater than that prior to modification |
